Laboratory results: patent US20250000976A1 (NATIONAL RESEARCH COUNCIL OF CANADA, published 2025)
Numbering of substitutions follows the chain as printed.

T1: BCMA_B5x Gln38_Ala54 (human, UniProt Q02223)
T1 construct: limits given in the sample name
T1 yeast-displayed fusion (looked up): QRYCNASVTNSVKGTNA

T2: human BCMA on target cells (Raji, Ramos, Jeko-1, RPMI8226) (human, UniProt Q02223 1-184)
T2 construct: also called TNFRSF17; BCMA-positive target cells
T2 sequence: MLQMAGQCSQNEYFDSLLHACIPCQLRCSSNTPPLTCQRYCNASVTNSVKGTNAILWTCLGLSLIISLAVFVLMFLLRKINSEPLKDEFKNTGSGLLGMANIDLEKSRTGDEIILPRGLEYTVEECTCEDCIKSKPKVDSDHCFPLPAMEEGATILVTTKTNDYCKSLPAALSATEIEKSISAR

T3: BCMA_B7x Met1_Tyr40 (human, UniProt Q02223)
T3 construct: limits given in the sample name
T3 yeast-displayed fusion (looked up): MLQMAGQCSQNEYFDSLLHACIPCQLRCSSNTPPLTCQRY

T4: BCMA_B21x Arg27_Tyr40 (human, UniProt Q02223)
T4 construct: limits given in the sample name
T4 yeast-displayed fusion (looked up): RCSSNTPPLTCQRY

T5: BCMA_B16x Ile22_Ala43 (C41S) (human, UniProt Q02223)
T5 construct: limits and substitution as printed in the sample name
T5 yeast-displayed fusion (looked up): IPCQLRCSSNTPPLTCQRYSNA

T6: hBCMA fragment Gly6-Pro23 displayed on yeast (Aga2-HA-(hBCMA)-MYC) (human, UniProt Q02223 6-23)
T6 construct: range 6-23; not shown: Aga2-HA N-terminal fusion partner of the pPNL6 yeast display vector; C-terminal MYC tag
T6 chain (looked up): GQCSQNEYFDSLLHACIP

T7: hBCMA-ECD-FC5VHH (human, UniProt Q02223 1-54, biotinylated in vivo ; biotinylated in vivo on the tag of the carrier part, which is not in the letters)
T7 construct: Made in HEK-293 cells, monomeric SEC fraction; The methods say about 500 RU captured on an SA chip; the results say immobilised on a CM5 chip; also called hBCMA-FC5; human BCMA-ECD; not shown: FC5 VHH carrier, any linker, and the His and biotinylation tags
T7 sequence: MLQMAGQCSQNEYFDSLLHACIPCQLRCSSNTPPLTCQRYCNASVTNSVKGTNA

T8: BCMA_B2x Gly6_Ala54 (human, UniProt Q02223)
T8 construct: limits given in the sample name
T8 yeast-displayed fusion (looked up): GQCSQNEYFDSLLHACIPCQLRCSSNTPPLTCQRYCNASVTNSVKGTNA

T9: full-length hBCMA-ECD displayed on yeast (Aga2-HA-(hBCMA)-MYC) (human, UniProt Q02223 1-54)
T9 construct: range 1-54; stands here as the molecule on which the mapped regions are counted; also called hBCMA ecto-domain (ECD); not shown: Aga2-HA N-terminal fusion partner of the pPNL6 yeast display vector; C-terminal MYC tag
T9 sequence (looked up): T7 sequence

T10: BCMA_B13x Gly6 (C8S)_Pro23 (human, UniProt Q02223)
T10 construct: limits and substitution as printed in the sample name
T10 yeast-displayed fusion (looked up): GQSSQNEYFDSLLHACIP

B1: hBCMA-VcMRo8(VF7/VF8) (VHH)
VHH: QVQLVESGGGLVQPGGSLRLSCAASGTIFSRNALAWFRQAPGKQRELVAHITIGGTTVYKDSVKGRFTISRDNAKNTVYLQMDALKPEDTAVYYCNADPEGSWNWVRRGDYWGQGTQVTVS
modifications: single biotin on the C-terminal AviTag
notes: also called V8; hBCMA-V8; not shown: C-terminal His tag and AviTag biotinylation signal from pMRO vector
B2: hBCMA-H2 (VHH)
VHH: QVKAEESGGGLVRPGDSLRLTCTISGRTSNNFVMAWFRRTPGKEREYVATRVWSGSTPYYHDSVKGRFTISIDDDKNTAYLQMNSLKPEDTAVYYCAATKDIMSRSYDYWGLGTQVTVSS
modifications: single biotin on the C-terminal AviTag
notes: also called VHH-H2; not shown: C-terminal His tag and AviTag biotinylation signal from pMRO vector
B3: hBCMA-H4 (VHH)
VHH: QVQLVESGGGLVQPGGSLRLSCAASGDSFGAYAMGWYRQAPGKQRELVAAISSAGNTFYRDSVKGRFTVSRNNAKNAMYLQMDRLKPEDTAVYQCNGAPWADEPVKVWNWGLGTQVTVSS
modifications: single biotin on the C-terminal AviTag
notes: also called VHH-H4; not shown: C-terminal His tag and AviTag biotinylation signal from pMRO vector
B4: hBCMA-A6 (VHH)
VHH: QVQLVESGGGLVQPGGSLRLSCVASGSIFDAYNMGWYRQAPGKQRELVAAISSAGTTFYRDSVKGRFTVSRNNAKNTMYLQMDRLRPEDTAVYDCNGAPWGDAPVKVEDWGQGTQVTVSS
modifications: single biotin on the C-terminal AviTag
notes: also called VHH-A6; not shown: C-terminal His tag and AviTag biotinylation signal from pMRO vector
B5: hBCMA-VcMRo3 (V3) (VHH)
VHH: EVQLEQSGGGLVQTGDSLRLTCTIPGRASNHFVMAWFRRAPGKEREFVATRVWSGGSPYYSDSVKGRFAIAIDNAKNTAYLQMNSLKPEDTAVYYCAATKDIMSRSYDYWGLGTQVTVSS
modifications: single biotin on the C-terminal AviTag
notes: also called hBCMA-V3; not shown: C-terminal His tag and AviTag biotinylation signal from pMRO vector
B6: hBCMA-E7 (VHH)
VHH: B5 VHH with E1Q, E5V, Q6E, T21A, P25S, S29T, N30D, F47Y, S61L, S85N
modifications: single biotin on the C-terminal AviTag
notes: Llama VHH made in E. coli BL21(DE3), IMAC purified, monomeric SEC fraction used; also called VHH-E7; VHH # 1-B1; not shown: C-terminal His tag and AviTag biotinylation signal from pMRO vector

Biological target: T1, BCMA_B5x Gln38_Ala54
Experiment: yeast cell ELISA, sample BCMA_B5x Gln38_Ala54
Description: (§1) The YSD vector (pPNL6) was from The Pacific Northwest National Laboratory, USA. […] The HRP activity was assayed with substrate TMB (tetramethyl benzidine) according to the manufacture's conditions and read at OD₄₅₀.
(§2) The assays were performed as described in the Materials and Method, and OD₄₅₀ was measured. Note that OD₄₅₀ reads equal or less than 0.100 were scored as zero for clarity.

binding result	Binder
no binding	B1
no binding	B2
no binding	B3
no binding	B4
no binding	B5
no binding	B6

Each binder was assayed against T2, human BCMA on target cells (Raji, …) (assay: flow cytometry on RPMI8226 cells (BCMA-high); VHH detected with AlexaFluor647 anti-VHH antibodies).
Description: Purified VHH were used to assess the target specificity of the sdBCMA Ab by flow cytometry. The highly BCMA expressing human myeloma cell line RPM18226, the BCMA-low human Burkitt's lymphoma cell line Raji, and the BCMA-negative Jurkat human T cell leukemia cell line were incubated with 5 fold dilution of biotin labelled sdBCMA VHH from 7.5-0.06 μg/mL. The binding of the BCMA-targeted VHH to cell surface BCMA was detected by flow cytometry using a mixture of two broad reactivity mouse anti-VHH antibodies conjugated with AlexaFluor647.

EC50 (read off the curve) [nM]	Binder
~2	B5
~0.9	B6

Biological target: T3, BCMA_B7x Met1_Tyr40
Experiment: yeast cell ELISA, sample BCMA_B7x Met1_Tyr40
Description: as §1, §2

OD450	Binder
2.37	B1
3.02	B2
1.39	B3
1.84	B4
1.62	B5
2.64	B6

Biological target: T4, BCMA_B21x Arg27_Tyr40
Experiment: yeast cell ELISA, sample BCMA_B21x Arg27_Tyr40
Description: as §1, §2

binding result	Binder
no binding	B1
no binding	B2
no binding	B3
no binding	B4
no binding	B5
no binding	B6

These binders were tested against T11, mBCMA-ECD-FC5VHH (mouse, UniProt O88472 1-49, biotinylated in vivo ; biotinylated in vivo on the tag of the carrier part, which is not in the letters) (assay: SPR (Biacore T200), VHH over mouse BCMA-ECD surface, 25 C).
T11 construct: also called mouse BCMA; murine BCMA ECD; not shown: FC5 VHH carrier, any linker, and the His and biotinylation tags
T11 sequence (O88472 1-49 limits assumed): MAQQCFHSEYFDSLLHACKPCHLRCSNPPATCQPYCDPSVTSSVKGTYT

Kd [nM]	koff [s⁻¹]	kon [M⁻¹ s⁻¹]	Binder
67.5	0.0514	762000	B6

Biological target: T5, BCMA_B16x Ile22_Ala43 (C41S)
Experiment: yeast cell ELISA, sample BCMA_B16x Ile22_Ala43 (C41S)
Description: as §1, §2

binding result	Binder
no binding	B1
no binding	B2
no binding	B3
no binding	B4
no binding	B5
no binding	B6

Biological target: T6, hBCMA fragment Gly6-Pro23 displayed on …
Experiment: yeast cell ELISA, sample BCMA_B12x Gly6_Pro23
Description: as §1, §2

binding result	OD450	Binder
no binding	–	B1
–	2.82	B2
no binding	–	B3
no binding	–	B4
–	2.08	B5
–	2.39	B6

These binders were tested against T7, hBCMA-ECD-FC5VHH (assay: SPR, 1:1 binding model).
Description: For surface Plasmon resonance, 15 selected VHHs were passed though size exclusion columns, Superdex 75 (GE Healthcare), respectively, in 10 mM HEPES, pH 7.4, containing 150 mM NaCl, 3 mM EDTA, monomeric sdAb fractions were collected and protein concentrations were determined by measuring absorbance at 280 nm (A280). Analysis were performed with Biacore T200 instrument (GE Healthcare). All measurements were carried out at 25° C. in 10 mM HEPES, pH 7.4, containing 150 mM NaCl, 3 mM EDTA and 0.005% surfactant P20 (GE Healthcare). Approximately 500 RUs of the recombinant monomeric BCMA-ECD (obtained after SEC purification of the BCMA-ECD-FC5VHH) were captured on SA sensor chip (GE Healthcare) at a flow rate of 5 uL/min. Various concentration of the monomeric VHHs (20-500 nM) were injected over BCMA-ECD surface, respectively using an SA surface as a reference at a flow rate of 40 μL/min. Surfaces were generated by washing with running buffer. Data were analysed with BIAevaluation 4.1 software.
The monomeric fraction of all 15 VHHs were used for SPR experiment where the human BCMA-ECD or mouse BCMA was immobilized onto the CM5 dextran chip and various VHH concentration (20-500 nM) were passed over the sensor chip.

Kd [nM]	Binder
4	B4
0.0462	B6

Biological target: T8, BCMA_B2x Gly6_Ala54
Experiment: yeast cell ELISA, sample BCMA_B2x Gly6_Ala54
Description: as §1, §2

OD450	Binder
2.74	B1
2.92	B2
2.16	B3
3.08	B4
2.53	B5
2.92	B6

The binders below were run against T9, full-length hBCMA-ECD displayed on … (assay: yeast cell ELISA, sample BCMA_B1x Met1_Ala54).
Description: as §1, §2

OD450	Binder
2.45	B1
2.12	B2
2.78	B3
1.88	B4
3.09	B5
2.52	B6

Biological target: T10, BCMA_B13x Gly6 (C8S)_Pro23
Experiment: yeast cell ELISA, sample BCMA_B13x Gly6 (C8S)_Pro23
Description: as §1, §2

binding result	Binder
no binding	B1
no binding	B2
no binding	B3
no binding	B4
